Reference: article PMC10679814, “Yeast lunapark regulates the formation of trans-Sey1p complexes for homotypic ER membrane fusion” (iScience, 2023)
Blank lines part the entries; values can stand above or below the molecule they belong to.

How the values were obtained:
[1] = biological target: Sey1p-ΔTM (S. cerevisiae); assay: SEC; Superdex 200 (10/300), 20 mM HEPES-NaOH pH 7.4, 150 mM NaCl; Sey1p-ΔTM incubated at 30°C for 1 h with GMP-PNP, without or with the Lnp1p peptide
[2] = biological target: T1, His6-tagged Sey1p-(1-675), the N-terminal cytoplasmic region of Sey1p (S. cerevisiae, UniProt Q99287 1-675); assay: pull-down; 40 μg his6-tagged protein with 20 μM Lnp1p peptide in RB150 buffer, 0.4% Triton X-100, 20 mM imidazole, 4°C 2 h; Ni-NTA agarose 30 min; SDS-PAGE, Coomassie; details: both partners purified
T1 construct: in pET28a; source: E. coli Rosetta-2 DE3, purified (Ni-NTA)
T1 sequence (looked up): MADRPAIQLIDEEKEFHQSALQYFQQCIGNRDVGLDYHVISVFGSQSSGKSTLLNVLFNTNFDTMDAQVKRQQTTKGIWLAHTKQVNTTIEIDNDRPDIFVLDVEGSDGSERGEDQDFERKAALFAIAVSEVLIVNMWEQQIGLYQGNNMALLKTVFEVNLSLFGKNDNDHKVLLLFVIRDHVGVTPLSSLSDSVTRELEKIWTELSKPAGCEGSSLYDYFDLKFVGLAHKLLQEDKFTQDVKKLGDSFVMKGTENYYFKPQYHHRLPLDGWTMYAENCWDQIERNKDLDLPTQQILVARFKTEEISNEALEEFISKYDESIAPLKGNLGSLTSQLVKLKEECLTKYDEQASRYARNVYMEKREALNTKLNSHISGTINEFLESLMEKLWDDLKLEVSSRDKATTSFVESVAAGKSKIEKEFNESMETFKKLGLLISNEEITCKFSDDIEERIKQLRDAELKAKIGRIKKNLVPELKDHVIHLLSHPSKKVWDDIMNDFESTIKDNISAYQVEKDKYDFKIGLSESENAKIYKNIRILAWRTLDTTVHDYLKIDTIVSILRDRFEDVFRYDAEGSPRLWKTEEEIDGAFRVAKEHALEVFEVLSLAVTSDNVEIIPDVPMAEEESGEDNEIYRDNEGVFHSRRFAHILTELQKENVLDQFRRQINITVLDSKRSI

[3] = biological target: T2, His6-tagged Sey1p-(1-283) (S. cerevisiae, UniProt Q99287 1-283); assay: as above; details: both partners purified
T2 construct: Sey1p, S. cerevisiae, amino acids 1-283 (GTPase domain); in pET28a; also called GTPase domain of Sey1p; source: E. coli Rosetta-2 DE3, purified (Ni-NTA)
T2 sequence (looked up): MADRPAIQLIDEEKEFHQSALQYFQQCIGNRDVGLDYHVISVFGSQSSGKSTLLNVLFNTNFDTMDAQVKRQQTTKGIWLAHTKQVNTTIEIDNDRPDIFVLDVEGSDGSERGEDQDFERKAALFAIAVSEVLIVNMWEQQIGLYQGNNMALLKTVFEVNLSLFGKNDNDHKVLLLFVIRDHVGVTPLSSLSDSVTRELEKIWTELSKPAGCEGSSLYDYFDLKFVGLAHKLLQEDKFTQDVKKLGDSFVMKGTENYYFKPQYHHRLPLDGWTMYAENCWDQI

- stoichiometry N [1]: 2
Molecule: Sey1p-ΔTM (domain or fragment)

- binding result [2]: binds
- binding result [3]: binds
B1: Lnp1p peptide, a synthetic peptide with the N-terminal region (amino acids 1-52) of Lnp1p (peptide, UniProt P38878 1-52, looked up)
peptide: MFSALGKWVRGSRNDKDFVTKYTADLSQITSQIHQLDVALKKSQSILSQWQS
notes: Lnp1p (yeast lunapark), S. cerevisiae, amino acids 1-52; also called LNP1 peptide; source: synthetic peptide (custom, Anygen)
